For the assay, the target named is fluorescein isothiocyanate (FITC)-casein. The assay can be described thus: fluorescence polarisation; fluorescence anisotropy; FITC-casein 100 nM, ClpB (WT or mutant) varied; Reaction buffer, 10 min at 30°C, 2 mM ATP; black 384 well plates; Kd by nonlinear regression.
fluorescein isothiocyanate (FITC)-casein, sequence (P02662 16-214): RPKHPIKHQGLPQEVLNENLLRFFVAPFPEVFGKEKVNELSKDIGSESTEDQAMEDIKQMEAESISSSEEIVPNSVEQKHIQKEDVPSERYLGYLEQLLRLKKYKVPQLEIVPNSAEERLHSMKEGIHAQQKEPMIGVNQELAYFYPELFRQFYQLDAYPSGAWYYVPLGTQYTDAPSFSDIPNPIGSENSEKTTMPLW

ClpB wild-type, sequence (P63284 whole entry): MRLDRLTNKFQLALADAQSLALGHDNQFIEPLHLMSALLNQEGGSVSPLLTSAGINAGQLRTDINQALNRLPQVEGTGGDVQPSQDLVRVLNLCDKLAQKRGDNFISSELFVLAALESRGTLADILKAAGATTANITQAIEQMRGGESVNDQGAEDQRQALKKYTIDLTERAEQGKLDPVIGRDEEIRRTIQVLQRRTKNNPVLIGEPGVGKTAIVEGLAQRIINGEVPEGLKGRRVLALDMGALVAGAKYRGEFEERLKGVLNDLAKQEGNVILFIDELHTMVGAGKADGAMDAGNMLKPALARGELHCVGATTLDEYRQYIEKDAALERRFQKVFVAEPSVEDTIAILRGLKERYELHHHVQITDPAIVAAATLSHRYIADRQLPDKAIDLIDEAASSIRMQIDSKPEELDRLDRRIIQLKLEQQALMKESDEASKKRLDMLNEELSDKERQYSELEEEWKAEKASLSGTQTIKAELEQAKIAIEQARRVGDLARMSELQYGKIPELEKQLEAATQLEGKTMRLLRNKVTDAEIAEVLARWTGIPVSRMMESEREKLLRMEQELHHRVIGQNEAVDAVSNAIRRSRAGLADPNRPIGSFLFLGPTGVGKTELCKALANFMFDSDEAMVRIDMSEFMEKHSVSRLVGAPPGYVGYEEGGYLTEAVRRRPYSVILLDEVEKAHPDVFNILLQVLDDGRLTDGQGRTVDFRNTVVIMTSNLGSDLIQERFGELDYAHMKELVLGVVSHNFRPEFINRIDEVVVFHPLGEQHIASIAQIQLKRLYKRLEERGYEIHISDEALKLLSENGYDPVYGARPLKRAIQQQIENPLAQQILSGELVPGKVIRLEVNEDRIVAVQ

“ClpB-K476C (from UniProt P63284 1-857) (natural protein)”: the Kd came to 0.22 µM.

As to “ClpB wild-type (from UniProt P63284 1-857) (natural protein)”, the Kd was 0.33 µM.

The values above are taken from publication PMC6593972.
